# Measured values published in patent US20100248359A1 (Chugai, published 2010).
# Where a chain is given by its changes, count along the chain named.
# B1: M18D4 (antibody, human IgG1, kappa, V domains shown)
# VH: EVQLQQSGTVLARPGASVKMSCKASGYTFTGYWMRWVKQRPGQGLEWIGAIYPGNSDTTYNQKFKGKAKLTAVTSVSTAYMELSSLTNEDSAVYYCSRSGDLTGGFAYWGQGTLVTVST
# VL: DIVMTQAAFSNPVTLGTSTSISCRSSKSLLHSNGITYLYWYLQKPGQSPQLLIYQMSNLASGVPDRFSSSGSGTDFTLRISRVEAEDVGVYYCAQNLELPYTFGSGTKLEIKR
# notes: Mouse monoclonal from hybridoma
# B2: M5B9 (antibody, V domains shown)
# VH: B1 VH with R35H, T59N, V76A, S91A, Y95H, S97T, F106L, T119A
# VL: DIVMTQAAFSNPVTLGTSASISCRSSKSLLHSNGITYLYWFLQKPGQSPQLLIYQMSNLASGVPDRFSSSGSGTDFTLRISRVEAEDVGVYYCAQNLELPYTFGSGTKLEIK
# notes: as for B1
# B3: M13B3 (antibody, V domains shown)
# VH: EVHLVESGGGLVKPGGSLKLSCAASGFTFSNYAMSWVRQTPEKRLEWVAAINNNGDDTYYLDTVKDRFTISRDNAKNTLYLQMSSLRSEDTALYYCVRQGGAYWGQGTLVTVSA
# VL: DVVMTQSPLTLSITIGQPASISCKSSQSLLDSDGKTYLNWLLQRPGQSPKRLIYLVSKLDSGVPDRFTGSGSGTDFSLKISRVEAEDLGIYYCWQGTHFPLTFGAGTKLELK
# notes: as for B1
# B4: M6B1 (antibody, V domains shown)
# VH: EVQLVESGGDLVKPGGSLKLSCAASGFTFSSYAMSWVRQTPEKRLEWVAAINSNGGTTYYPDTMKDRFTISRDNAKNTLYLQMSSLRSEDSALYYCTRHNGGYENYGWFAYWGQGTLVTVSA
# VL: DIQMTQSPSSLSASLGGKVTITCKASQDINKNIIWYQHKPGKGPRLLIWYTSTLQPGIPSRFSGSGSGRDYSFSISNLEPEDIATYYCLQYDNLPRTFGGGTKLEIK
# notes: as for B1
# Molecular target: T1, soluble form of GPC3 core protein (human, UniProt P51654 25-563)
# T1 construct: not shown: His tag added to the C-terminus
# Assay: competitive ELISA on coated soluble GPC3 core protein; labelled competitor biotin-M3C11;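 also: Biotin-labelled antibody added as 10 µL at 10 µg/mL for 1 h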
# T1 sequence (P51654 25-563 S495A/S509A, form in doubt): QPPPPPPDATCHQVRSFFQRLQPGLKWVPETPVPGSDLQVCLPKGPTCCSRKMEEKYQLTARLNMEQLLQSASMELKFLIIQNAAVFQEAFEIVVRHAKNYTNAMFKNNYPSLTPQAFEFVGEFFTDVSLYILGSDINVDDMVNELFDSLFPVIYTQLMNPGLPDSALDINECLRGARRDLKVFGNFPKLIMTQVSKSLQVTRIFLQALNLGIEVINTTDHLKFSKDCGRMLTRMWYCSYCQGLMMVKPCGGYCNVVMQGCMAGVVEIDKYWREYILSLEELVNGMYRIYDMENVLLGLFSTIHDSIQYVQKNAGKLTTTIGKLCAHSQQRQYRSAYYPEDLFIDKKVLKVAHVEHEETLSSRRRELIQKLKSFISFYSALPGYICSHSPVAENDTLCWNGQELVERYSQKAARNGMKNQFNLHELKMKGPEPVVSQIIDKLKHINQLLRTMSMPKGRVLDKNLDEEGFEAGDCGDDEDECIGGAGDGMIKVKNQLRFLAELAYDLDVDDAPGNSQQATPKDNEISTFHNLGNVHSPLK
row,Inhibition of the binding of indicated biotin-Mab to sGPC3 core (%),Binder
1,0.2,B1
2,0.1,B2
3,71.3,B3
4,-5.7,B4

# Molecular target: T1, soluble form of GPC3 core protein
# Assay: competitive ELISA on coated soluble GPC3 core protein; labelled competitor biotin-M18D4;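 also: Biotin-labelled antibody added as 10 µL at 10 µg/mL for 1 h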
# Procedure: (§1) The obtained antibodies were classified according to the epitopes by a competitive ELISA. The antibodies were biotinylated using a Biotin Labeling Kit (Roche). The soluble form of GPC3 core protein was diluted to 1 μg/mL with the coating buffer and added to a plate at 100 μL/well and stored at 4° C. overnight to coat the plate. On the next day, 200 μL of the substrate buffer was added for blocking. The plate was left at 4° C. overnight or longer and an anti-GPC3 antibody was added to the plate at 100 μL/well and reacted at room temperature for 1 hour. After that, without washing of the plate, 10 μL of 10 μg/mL biotin-labeled anti-GPC3 antibody was added and further reacted for 1 hour. The plate was washed with 300 μL/well of the rinse buffer for 3 times. AP-streptavidin conjugate (ZYMED) was diluted to 1000-fold with the dilution buffer and added at 100 μL/well and reacted at room temperature for 1 hour. The plate was washed with 300 μL/well of the rinse buffer for 5 times.
row,Inhibition of the binding of indicated biotin-Mab to sGPC3 core (%),Binder
1,89,B1
2,77.3,B2
3,2.7,B3
4,51.9,B4

# Molecular target: T2, full-length human GPC3 (human, UniProt P51654 25-554)
# T2 construct: On CHO (DXB11) or SK-HEP-1 (SK-03) transfectants; also used here for the GPC3 on the hepatoma lines HepG2 and HuH-7; also called human glypican 3
# Assay: BIACORE; the form of GPC3 used is not given
# T2 sequence (P51654 25-554 limits assumed): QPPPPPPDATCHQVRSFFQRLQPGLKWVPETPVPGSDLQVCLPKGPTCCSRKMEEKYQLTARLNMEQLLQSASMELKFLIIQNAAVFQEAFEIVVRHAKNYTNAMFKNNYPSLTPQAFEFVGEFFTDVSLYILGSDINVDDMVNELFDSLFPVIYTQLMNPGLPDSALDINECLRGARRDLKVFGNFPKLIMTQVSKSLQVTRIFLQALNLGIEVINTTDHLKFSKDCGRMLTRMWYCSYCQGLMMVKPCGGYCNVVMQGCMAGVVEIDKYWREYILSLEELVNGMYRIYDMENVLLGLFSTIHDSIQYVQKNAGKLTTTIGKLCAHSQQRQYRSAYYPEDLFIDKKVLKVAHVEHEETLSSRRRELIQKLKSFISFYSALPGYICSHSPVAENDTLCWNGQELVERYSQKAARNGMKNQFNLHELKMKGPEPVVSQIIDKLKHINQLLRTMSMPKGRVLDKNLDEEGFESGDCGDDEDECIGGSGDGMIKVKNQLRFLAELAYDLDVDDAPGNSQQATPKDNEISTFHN
Kd [nM],koff [s⁻¹],kon [M⁻¹ s⁻¹],Binder
6.2,0.000496,80000,B1
23.5,0.00139,60000,B2

# Molecular target: T2, full-length human GPC3
# Assay: flow cytometry, antibody at 5 µg/mL, HuH-7 cells
row,FACS X-mode value of the histogram,Binder
1,2,B1
2,2,B2
3,3,B4

# Molecular target: T2, full-length human GPC3
# Assay: flow cytometry, antibody at 5 µg/mL, HepG2 cells
row,FACS X-mode value of the histogram,Binder
1,20,B1
2,23,B2
3,34,B4

# Molecular target: T2, full-length human GPC3
# Assay: flow cytometry, antibody at 5 µg/mL, CHO cells expressing human GPC3 (column CHO/human GPC3)
# Procedure: Cells were dissociated with 1 mM EDTA pH 8.0 (GIBCO)/PBS and suspended in FACS buffer (1% FBS/PBS) at 1×10⁶ cells/mL. The suspension was dispensed to a Multiscreen-HV Filter Plate (Millipore) at 100 μL/well and the supernatant was removed by centrifugation. An anti-GPC3 antibody diluted to an appropriate concentration was added and reacted on ice for 30 minutes. The cells were washed once with FACS buffer and an FITC-labeled anti-mouse IgG antibody was added and reacted on ice for 30 minutes. After the reaction, the cells were centrifuged at 500 rpm for 1 minute, and the supernatant was removed. The cells were suspended in 400 μL of FACS buffer and subjected to flow cytometry. EPICS ELITE ESP (Beckman Coulter) was used as a flow cytometer. A gate was set on the living cell population with the histogram of forward scatter and side scatter.
row,FACS X-mode value of the histogram,Binder
1,22,B1
2,25,B2
3,37,B4

# Molecular target: T1, soluble form of GPC3 core protein
# Assay: competitive ELISA on coated soluble GPC3 core protein; labelled competitor biotin-M10D2;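 also: Biotin-labelled antibody added as 10 µL at 10 µg/mL for 1 h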
# Procedure: (§2) The antibodies were biotinylated using a Biotin Labeling Kit (Roche). The soluble form of GPC3 core protein was diluted to 1 μg/mL with the coating buffer and added to a plate at 100 μL/well and stored at 4° C. overnight to coat the plate. On the next day, 200 μL of the substrate buffer was added for blocking. The plate was left at 4° C. overnight or longer and an anti-GPC3 antibody was added to the plate at 100 μL/well and reacted at room temperature for 1 hour. After that, without washing of the plate, 10 μL of 10 μg/mL biotin-labeled anti-GPC3 antibody was added and further reacted for 1 hour. The plate was washed with 300 μL/well of the rinse buffer for 3 times. AP-streptavidin conjugate (ZYMED) was diluted to 1000-fold with the dilution buffer and added at 100 μL/well and reacted at room temperature for 1 hour. The plate was washed with 300 μL/well of the rinse buffer for 5 times.
row,Inhibition of the binding of indicated biotin-Mab to sGPC3 core (%),Binder
1,19.1,B1
2,13.4,B2
3,22.3,B3
4,6.7,B4

# Molecular target: T1, soluble form of GPC3 core protein
# Assay: competitive ELISA on coated soluble GPC3 core protein; labelled competitor biotin-M1E7;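 also: Biotin-labelled antibody added as 10 µL at 10 µg/mL for 1 h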
row,Inhibition of the binding of indicated biotin-Mab to sGPC3 core (%),Binder
1,0.5,B1
2,2.7,B2
3,95.7,B3
4,-2.7,B4

# Molecular target: T1, soluble form of GPC3 core protein
# Assay: competitive ELISA on coated soluble GPC3 core protein; labelled competitor biotin-M5B9;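 also: Biotin-labelled antibody added as 10 µL at 10 µg/mL for 1 h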
# Procedure: as §2
row,Inhibition of the binding of indicated biotin-Mab to sGPC3 core (%),Binder
1,89.4,B1
2,77.3,B2
3,-1.8,B3
4,44.4,B4

# Molecular target: T1, soluble form of GPC3 core protein
# Assay: competitive ELISA on coated soluble GPC3 core protein; labelled competitor biotin-M11F1;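 also: Biotin-labelled antibody added as 10 µL at 10 µg/mL for 1 h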
# Procedure: as §2
row,Inhibition of the binding of indicated biotin-Mab to sGPC3 core (%),Binder
1,-0.3,B1
2,5.3,B2
3,15.6,B3
4,13.9,B4

# Molecular target: T1, soluble form of GPC3 core protein
# Assay: competitive ELISA on coated soluble GPC3 core protein; labelled competitor biotin-M6B1;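 also: Biotin-labelled antibody added as 10 µL at 10 µg/mL for 1 h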
# Procedure: as §2
row,Inhibition of the binding of indicated biotin-Mab to sGPC3 core (%),Binder
1,38.6,B1
2,23.2,B2
3,9.3,B3
4,85.6,B4

# Molecular target: T1, soluble form of GPC3 core protein
# Assay: competitive ELISA on coated soluble GPC3 core protein; labelled competitor biotin-L9G11;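 also: Biotin-labelled antibody added as 10 µL at 10 µg/mL for 1 h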
# Procedure: as §1
row,Inhibition of the binding of indicated biotin-Mab to sGPC3 core (%),Binder
1,6.7,B1
2,10.3,B2
3,24.9,B3
4,1.1,B4

# Molecular target: T1, soluble form of GPC3 core protein
# Assay: ELISA on plate coated with soluble GPC3 core protein
row,EC50 [nM],Binder
1,0.85,B1
2,1.13,B2
3,0.25,B3
4,5.51,B4
